Literature values as cited in publication PMC7312390.

How the values were obtained:
His57 = His57 (UniProt position 57, VVTAAHCGVTT); settings: free (apo) chymotrypsin
Cys25 = Cys25 (UniProt position 158, GSCGSCWAFSA); settings: free cysteine protease (Cys/His ion pair in the apo state)

Row | Substance | pKa (His57) | pKa (Cys25)
1 | chymotrypsin (not stated in the article (PDB 4CHA is bovine, Bos taurus, alpha-chymotrypsin)) | 7.5 | –
2 | papain (Carica papaya (not stated in the article; inferred)) | – | 3.3
